# Test results as given in patent US20210253725A1 (BIONTECH, published 2021).
# T1: CD27 expressed on the cell surface (HT1080_CD27 cells) (human, UniProt P26842 20-260)
# T1 sequence (looked up): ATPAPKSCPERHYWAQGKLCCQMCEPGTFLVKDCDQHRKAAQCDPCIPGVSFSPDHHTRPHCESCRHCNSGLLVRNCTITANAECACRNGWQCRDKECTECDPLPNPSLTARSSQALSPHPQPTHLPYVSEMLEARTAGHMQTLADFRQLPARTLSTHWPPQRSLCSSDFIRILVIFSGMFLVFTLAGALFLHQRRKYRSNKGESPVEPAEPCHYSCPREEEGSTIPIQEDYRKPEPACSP
# T2: CD27 protein (His-tagged, Sino Biological Inc. 10039-H08B1) (human, UniProt P26842 20-192)
# T2 construct: bought; coated onto ELISA plates; also called human CD27; recombinant protein; not shown: His tag
# T2 sequence (looked up): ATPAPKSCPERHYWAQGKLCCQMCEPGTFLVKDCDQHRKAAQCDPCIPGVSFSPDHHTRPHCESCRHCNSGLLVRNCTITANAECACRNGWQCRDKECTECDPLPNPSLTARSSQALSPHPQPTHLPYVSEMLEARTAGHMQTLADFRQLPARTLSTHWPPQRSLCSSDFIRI
# B1: P018.S.09.A.E03 (antibody, V domains shown)
# VH: QSVEESGGRLVTPGTPLTLTCTASGFSLSSYYMGWVRQAPGKGLEWIGFITSGGSGSTYYASWAKGRFTISKTSTTVDLKMTSLTTEDTATYFCARYGDSFYWALDLWGQGTLVTVSS
# VL: AQVLTQTPSSVSAAVGGTVTINCQSSQSVLNNDLSWYQQKPGQPPKLLIYAASTLASGVPSRFKGSGSGTQFTLTINVGQSDDAATYYCQGYFIDVNNPFGGGTEVVVK
# notes: V regions on human Ig constant parts; also called AB27_154
# B2: P018.S.10.A.E06 (antibody, V domains shown)
# VH: QSLEESGGRLVTPGTPLTLTCTVSGIDLSDYAMAWVRQAPGKGLEYIGFINIGGISSVANWAIGRFTISKSSTTVDLKITSPTTEDTATYFCAREGYTTGGGGPYYGMDLWGPGTLVTVSS
# VL: DIVMTQTPASVSEPMGGTVTIKCQASQSIHSWLSWYQQKPGQPPKRLIYTASTLASGVPSRFKGSGSGTEYTLTISDLESADAATYYCQRNSYSDFNNYVFGGGTEVVVK
# notes: V regions on human Ig constant parts; also called AB27_178
# B3: P018.S.07.A.E03 (antibody, V domains shown)
# VH: QSLEESGGRLVTPGTPLTLTCTVSGIDLSSYAMGWVRQAPGKGLELIGLIYASDRTHYATWAKGRFTISKSSTTVDLKATSLTTEDTATYFCGRYGRGSGGYYYGMDLWGPGTLVTVSS
# VL: DVVMTQTPASVEAAVGGTVTIKCQASQSGDNYLSWYQQKSGQPPKLLIYLASTLASGVPSRFRGSRSGTEYTLTISDLESADAATYYCQNYCAGSGVCVGVAFGGGTEVVVK
# notes: V regions on human Ig constant parts; also called AB27_125
# B4: P018.S.01.A.E04 (antibody, V domains shown)
# VH: QEQLKESGGGLVTPGGTLTLTCTASGSDISNYGVSWVRQAPGKGLEWIGFINADGGGTWYASWVKGRFTISRTSTTVELKMTSLTTEHTATYFCATYGGGGGHNLWGPGTLVTVSS
# VL: AQVLTQTPSSVSAAVGGTVTINCQSSQSVYDNNALAWYQQKPGQPPKLLLYSASRLASGVPSRFKGSGSGTQFTLTISDLESDDAATYYCAAYYGSGDIFAFGGGTEVVVE
# notes: V regions on human Ig constant parts; also called AB27_16
# B5: P018.S.04.A.B03 (antibody, V domains shown)
# VH: QSLEESGGRLVTPGTPLTLTCTASGFSLSSYDMSWVRQAPGKGLEWIGYIWSDGDTDYANWAIGRFTISKTSTTVDLKMTSPTTEDTATYFCARGYTNYDLWGQGTLVTVSS
# VL: AAVLTQTPSSVSAAVGGTVTISCQSSQSLYSDPYLSWHQQKPGQPPKRLIYQASTLASGVSSRFKGSGSGTEYTLTISDVQSDDAATYFCQGTYYSDGWYSDFGGGTEVVVK
# notes: V regions on human Ig constant parts; also called AB27_67
# B6: P018.S.02.A.D04 (antibody, V domains shown)
# VH: QEQLVESGGGLVQPEGSLTLTCTASALSFYSAWICWVRQAPGKGLKWIACIYAGGSRSTYYATWATGRFTISEASSTTVTLQMTSLTAADTATYFCARSLSADTYWNLWGPGTLVTVSS
# VL: DVVMTQTPASVEAAVGGTVTIKCQASESISSWLAWYQQKPGQPPKLLIYRASTLESGVPSRFKGSGSGTEFTLTISDLESADAATYYCQNNGGGTSGYTFGGGTEVVVK
# notes: V regions on human Ig constant parts; also called AB27_33
# B7: P018.S.06.A.D04 (antibody, V domains shown)
# VH: QSLEESGGRLVKPDETLTLTCTVSGFDLSSYAVVWVRQAPGKGLEWIGYIYGGSGSTWYASWAKGRFTISKTSSTTVDLKMTSLTTEDTATYFCARAYDSGYIGNSFYAFDPWGPGTLVTVSS
# VL: DIVMTQTPASVSAAVGGTVTIKCQASQTISSTLAWYQQKPGQPPKLLIYSASTLASGVSSRFKGSGSGPEFTLTISDLESADGGTYTCAGYGTVGVTAFGGGTEVVVR
# notes: V regions on human Ig constant parts; also called AB27_103
# Molecular target: T1, CD27 expressed on the cell surface …
# Experiment: cell-based or functional assay
# Note: test concentration or dose not given here.
"IL-8, cross-linked by F(ab')2 fragment [abs. corr.]",IL-8 [abs. corr.],Binder
1.54 abs. corr.,0.099 abs. corr.,B1
2.06 abs. corr.,0.262 abs. corr.,B2
1.51 abs. corr.,0.123 abs. corr.,B3
1.15 abs. corr.,0.264 abs. corr.,B4
1.97 abs. corr.,0.394 abs. corr.,B5
1.37 abs. corr.,0.569 abs. corr.,B6
1.06 abs. corr.,0.444 abs. corr.,B7

# Molecular target: T1, CD27 expressed on the cell surface …
# Experiment: cellular binding assay, HT1080_CD27 cells
row,Cellular binding assay [RFU],Binder
1,334 RFU,B1
2,215 RFU,B2
3,227 RFU,B3
4,295 RFU,B4
5,338 RFU,B5
6,390 RFU,B6
7,394 RFU,B7

# Molecular target: T2, CD27 protein (His-tagged, Sino …)
# Experiment: ELISA on coated His-tagged CD27
row,ELISA [abs. corr.],Binder
1,3.27 abs. corr.,B1
2,3.28 abs. corr.,B2
3,3.28 abs. corr.,B3
4,3.28 abs. corr.,B4
5,3.28 abs. corr.,B5
6,3.27 abs. corr.,B6
7,3.28 abs. corr.,B7
